# In the supplement of paper PMC9112550, “Optimization of the antimicrobial peptide Bac7 by deep mutational scanning” (BMC Biology, 2022):
# Tested on: Escherichia coli TOP10
# Test: shrunken log2 fold change of peptide-encoding DNA abundance (4.5 h post-induction vs induction); higher = less antimicrobial activity (less host growth inhibition)
# Settings: time post-induction: 4.5 h; library: site-saturation at positions 5, 18, 19, 20
# 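Also: peptides expressed intracellularly from a pBAD plasmid library in pooled LB shake-flask culture, induced with 0.3% L-arabinose, DNA abundance read by NGS, three biological replicates, DESeq2 with apeglm shrinkage.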
row,Sequence,shrunken log2 fold change
1,RRIRDRPPRLPRPRPRPKVIPRP,-0.176
2,RRIRYRPPRLPRPRPRPYSPPRP,-0.0311
3,RRIRCRPPRLPRPRPRPTSVPRP,0.0631
4,RRIRERPPRLPRPRPRPYCTPRP,-1.13
5,RRIRSRPPRLPRPRPRPDTKPRP,-0.248
6,RRIRLRPPRLPRPRPRPQGFPRP,-0.0528
7,RRIRNRPPRLPRPRPRPMLDPRP,-0.000365
8,RRIRTRPPRLPRPRPRPYFHPRP,-0.909
9,RRIRIRPPRLPRPRPRPHDVPRP,0.000407
10,RRIRMRPPRLPRPRPRPLPHPRP,0.407
11,RRIRHRPPRLPRPRPRPAWEPRP,0.421
12,RRIRRRPPRLPRPRPRPCIPPRP,-0.867
13,RRIRSRPPRLPRPRPRPKPQPRP,0.524
14,RRIRWRPPRLPRPRPRPSKVPRP,-0.04
15,RRIRNRPPRLPRPRPRPISVPRP,-0.00409
16,RRIRLRPPRLPRPRPRPRAEPRP,0.0944
17,RRIRDRPPRLPRPRPRPCSGPRP,-0.0282
18,RRIRSRPPRLPRPRPRPWIGPRP,-0.0735
19,RRIRTRPPRLPRPRPRPCWSPRP,0.499
20,RRIRFRPPRLPRPRPRPNECPRP,-0.00063
21,RRIRHRPPRLPRPRPRPWSPPRP,-0.697
22,RRIRSRPPRLPRPRPRPTHRPRP,0.0995
23,RRIRNRPPRLPRPRPRPAFWPRP,0.0558
24,RRIRPRPPRLPRPRPRPQCMPRP,-0.312
25,RRIRDRPPRLPRPRPRPRWLPRP,0.511

row,Sequence,shrunken log2 fold change
1,RRIRARPPRLPRPRPRPIMGPRP,0.0143
2,RRIRYRPPRLPRPRPRPDNLPRP,-0.196
3,RRIRHRPPRLPRPRPRPGPQPRP,0.0368
4,RRIRQRPPRLPRPRPRPTPGPRP,0.417
5,RRIRSRPPRLPRPRPRPLCRPRP,-0.0794
6,RRIRTRPPRLPRPRPRPPKPPRP,0.304
7,RRIRRRPPRLPRPRPRPNPEPRP,0.302
8,RRIRRRPPRLPRPRPRPVYKPRP,0.0922
9,RRIRVRPPRLPRPRPRPWAKPRP,-0.00459
10,RRIRTRPPRLPRPRPRPNPCPRP,0.0479
11,RRIRARPPRLPRPRPRPWCVPRP,0.201
12,RRIRMRPPRLPRPRPRPPRIPRP,0.226
13,RRIRHRPPRLPRPRPRPIPEPRP,-0.16
14,RRIRQRPPRLPRPRPRPNNAPRP,-0.216
15,RRIRTRPPRLPRPRPRPDEKPRP,0.0325
16,RRIRWRPPRLPRPRPRPIWVPRP,-0.0257
17,RRIRTRPPRLPRPRPRPCIKPRP,-0.476
18,RRIRIRPPRLPRPRPRPNLFPRP,-0.512
19,RRIRDRPPRLPRPRPRPGFRPRP,0.248
20,RRIRSRPPRLPRPRPRPFQNPRP,-0.3
21,RRIRQRPPRLPRPRPRPTFTPRP,-0.222
22,RRIRGRPPRLPRPRPRPKQRPRP,0.471
23,RRIRVRPPRLPRPRPRPWFAPRP,-0.191
24,RRIRKRPPRLPRPRPRPWVMPRP,-0.251
25,RRIRCRPPRLPRPRPRPFMAPRP,-0.15

row,Sequence,shrunken log2 fold change
1,RRIRHRPPRLPRPRPRPKLTPRP,-0.0624
2,RRIRKRPPRLPRPRPRPGRVPRP,0.58
3,RRIRLRPPRLPRPRPRPIRWPRP,-0.241
4,RRIRERPPRLPRPRPRPHLQPRP,-0.206
5,RRIRIRPPRLPRPRPRPAEWPRP,-0.124
6,RRIRARPPRLPRPRPRPQCYPRP,-0.0761
7,RRIRIRPPRLPRPRPRPYFFPRP,-0.875
8,RRIRDRPPRLPRPRPRPQWVPRP,-0.0468
9,RRIRWRPPRLPRPRPRPTVKPRP,-0.0974
10,RRIRQRPPRLPRPRPRPRKDPRP,-0.16
11,RRIRTRPPRLPRPRPRPANFPRP,-0.234
12,RRIRSRPPRLPRPRPRPFTHPRP,-0.0568
13,RRIRRRPPRLPRPRPRPGFIPRP,-0.00928
14,RRIRQRPPRLPRPRPRPMVMPRP,0.0852
15,RRIRVRPPRLPRPRPRPFVGPRP,-0.0757
16,RRIRGRPPRLPRPRPRPPKMPRP,0.348
17,RRIRYRPPRLPRPRPRPRTPPRP,-0.149
18,RRIRYRPPRLPRPRPRPVLTPRP,-0.0151
19,RRIRNRPPRLPRPRPRPQCSPRP,-0.148
20,RRIRTRPPRLPRPRPRPMIEPRP,-0.244
21,RRIRMRPPRLPRPRPRPFLAPRP,0.0298
22,RRIRIRPPRLPRPRPRPNILPRP,-0.557
23,RRIRNRPPRLPRPRPRPRYHPRP,-0.438
24,RRIRCRPPRLPRPRPRPTAEPRP,0.363
25,RRIRRRPPRLPRPRPRPGQWPRP,0.312

row,Sequence,shrunken log2 fold change
1,RRIRYRPPRLPRPRPRPLWAPRP,-0.25
2,RRIRWRPPRLPRPRPRPAWSPRP,0.265
3,RRIRWRPPRLPRPRPRPLQIPRP,-0.125
4,RRIRGRPPRLPRPRPRPPKDPRP,0.799
5,RRIRERPPRLPRPRPRPVLMPRP,0.0559
6,RRIRQRPPRLPRPRPRPKEIPRP,-0.223
7,RRIRSRPPRLPRPRPRPFTNPRP,-0.0617
8,RRIRMRPPRLPRPRPRPDSWPRP,1.59
9,RRIRLRPPRLPRPRPRPCSHPRP,-0.226
10,RRIRGRPPRLPRPRPRPSWDPRP,0.496
11,RRIRARPPRLPRPRPRPENNPRP,0.263
12,RRIRCRPPRLPRPRPRPNRTPRP,-0.0547
13,RRIRQRPPRLPRPRPRPMYEPRP,-0.01
14,RRIRTRPPRLPRPRPRPVDGPRP,0.0538
15,RRIRARPPRLPRPRPRPAWDPRP,0.858
16,RRIRLRPPRLPRPRPRPWWPPRP,0.0144
17,RRIRVRPPRLPRPRPRPEMKPRP,-0.184
18,RRIRWRPPRLPRPRPRPMERPRP,-0.0173
19,RRIRERPPRLPRPRPRPGVNPRP,0.0154
20,RRIRDRPPRLPRPRPRPGPEPRP,0.544
21,RRIRMRPPRLPRPRPRPWAGPRP,0.235
22,RRIRARPPRLPRPRPRPFKKPRP,-0.0888
23,RRIRTRPPRLPRPRPRPFVDPRP,-0.0538
24,RRIRGRPPRLPRPRPRPTEKPRP,0.455
25,RRIRIRPPRLPRPRPRPYRRPRP,-0.648

row,Sequence,shrunken log2 fold change
1,RRIRPRPPRLPRPRPRPVYKPRP,-0.199
2,RRIRARPPRLPRPRPRPYFSPRP,-0.624
3,RRIRVRPPRLPRPRPRPITIPRP,-0.0236
4,RRIRNRPPRLPRPRPRPTIEPRP,0.0325
5,RRIRRRPPRLPRPRPRPVPNPRP,0.353
6,RRIRERPPRLPRPRPRPGSLPRP,-0.431
7,RRIRVRPPRLPRPRPRPMSTPRP,-0.268
8,RRIRVRPPRLPRPRPRPVSYPRP,-0.51
9,RRIRIRPPRLPRPRPRPPLWPRP,0.504
10,RRIRVRPPRLPRPRPRPNDWPRP,-0.208
11,RRIRVRPPRLPRPRPRPYKEPRP,0.0231
12,RRIRRRPPRLPRPRPRPDKFPRP,0.0835
13,RRIRTRPPRLPRPRPRPIYGPRP,-0.0121
14,RRIRMRPPRLPRPRPRPNSCPRP,-0.0381
15,RRIRARPPRLPRPRPRPLERPRP,-0.0328
16,RRIRGRPPRLPRPRPRPINKPRP,0.287
17,RRIRCRPPRLPRPRPRPMAIPRP,-0.132
18,RRIRERPPRLPRPRPRPKGIPRP,-0.000842
19,RRIRLRPPRLPRPRPRPHRNPRP,-0.319
20,RRIRCRPPRLPRPRPRPTKAPRP,0.209
21,RRIRIRPPRLPRPRPRPQQLPRP,-0.0183
22,RRIRFRPPRLPRPRPRPMTWPRP,0.478
23,RRIRFRPPRLPRPRPRPQLMPRP,-0.32
24,RRIRTRPPRLPRPRPRPGNHPRP,-0.731
25,RRIRLRPPRLPRPRPRPECRPRP,2.41

row,Sequence,shrunken log2 fold change
1,RRIRVRPPRLPRPRPRPHVIPRP,-0.0921
2,RRIRFRPPRLPRPRPRPWIDPRP,-0.0232
3,RRIRNRPPRLPRPRPRPVRYPRP,-0.0196
4,RRIRSRPPRLPRPRPRPTMQPRP,-0.106
5,RRIRRRPPRLPRPRPRPNIDPRP,-0.0882
6,RRIRCRPPRLPRPRPRPNQMPRP,-0.447
7,RRIRTRPPRLPRPRPRPATEPRP,-0.0814
8,RRIRKRPPRLPRPRPRPWIYPRP,-0.00162
9,RRIRTRPPRLPRPRPRPFDEPRP,-0.206
10,RRIRKRPPRLPRPRPRPRSIPRP,0.176
11,RRIRFRPPRLPRPRPRPECHPRP,0.0585
12,RRIRGRPPRLPRPRPRPNDVPRP,-0.208
13,RRIRDRPPRLPRPRPRPYGNPRP,-0.117
14,RRIRHRPPRLPRPRPRPAKPPRP,0.533
15,RRIRKRPPRLPRPRPRPKNTPRP,-0.0285
16,RRIRFRPPRLPRPRPRPKALPRP,0.191
17,RRIRWRPPRLPRPRPRPNIVPRP,-0.112
18,RRIRARPPRLPRPRPRPVNCPRP,1.04
19,RRIRPRPPRLPRPRPRPLWDPRP,0.00439
20,RRIRWRPPRLPRPRPRPWMNPRP,-0.287
21,RRIRSRPPRLPRPRPRPMPLPRP,-0.0685
22,RRIRHRPPRLPRPRPRPAFAPRP,0.278
23,RRIRFRPPRLPRPRPRPDEEPRP,-0.00623
24,RRIRMRPPRLPRPRPRPNDFPRP,0.0282
25,RRIRWRPPRLPRPRPRPMVDPRP,-0.0461
